Substitutions are numbered along the chain they refer to. Names may count otherwise.

Experiment [1] relates to MCF-7 cells. Put plainly: Cell proliferation assay (WST-1), heregulin dependent MCF-7 cells. It is filed as cell-based, human. The note with it: 72 hours, phage fusion or purified protein as labelled, read-out: Calculated cell proliferation (EC50). The method, then: (§1) Phage-fusion particles displaying ligand variants were evaluated for their ability to stimulate cell proliferation in the cell proliferation assay described herein in both an EGF dependent cell line, HER5 and a heregulin dependent cell line, MCF-7.
MCF-7 cells (human breast cancer cell lines that express HER2 and HER3) were obtained from the American Type Culture Collection (ATCC). Stock cultures of MCF-7 were maintained in Eagle's MEM supplemented with 1% ITS-X (Invitrogen) and 10% fetal bovine serum.
For proliferation assays, MCF-7 cells were transferred to serum-free medium (SFM) for 24 hours and then trypsinized and suspended at 10^5 cells/mL in SFM. Fifty microliters of cell suspension (5000 cells) were plated per well in 96 well microtiter plates. Serial dilutions of HER ligands or mutant proteins were prepared at twice the final concentration in SFM and 50 ul was added to wells, bringing the final volume to 100 ul at the desired final concentration. Plates were incubated for 72 hours at 37 C in a humidified 5% CO2 atmosphere. Cell proliferation was determined by addition of 10 ul/well of WST-1 Cell Proliferation Reagent (Roche Applied Sciences, Indianapolis, Ind.) for the last three hours of the proliferation period.

Experiment [2] relates to MCF-7 cells. The following applies: stated as known; cited from earlier work.
The target of experiment [3] is Her-3 (Homo sapiens, UniProt P21860). The note with it: particularly for Her-3; cited from earlier work.
In experiment [4] the test system is HER5 cells. Put plainly: Cell proliferation assay (WST-1), EGF dependent HER5 cells. The note with it: 48 hour proliferation, phage fusion or purified protein as labelled, read-out: Calculated cell proliferation (EC50). The class given is cell-based, mouse. The method, then:
as §1
The HER5 cell line, a murine fibroblast line (derived from the NR-6 line; mouse fibroblast cells that overexpress human EGFR) that has been stably transfected to express the human EGF receptor was provided by Dr. M. C. Hung (MD Anderson Cancer Center).
Stock cultures of HER5 were propagated in D-MEM/F12 medium containing 10% fetal bovine serum, 100 units/ml of penicillin and 100 ug/ml of streptomycin in a water-jacketed incubator at 37° C. in a humidified 5% CO2 atmosphere.
For HER5 proliferation assays, the cells were changed into DMEM/F12 without serum for 24 hours. Cells were then trypsinized and suspended at 1E5 cells/ml. Serial dilutions of EGF (PeproTech, Rocky Hill, N.J.), and HER ligand polypeptide variants were prepared in serum-free DMEM/F12 at 2-fold the final concentration and plated into the wells of 96-well plates. […] Cell proliferation was determined by addition of 10 ul/well of WST-1 Cell Proliferation Reagent (Roche Applied Sciences, Indianapolis, Ind.) for the last three hours of the proliferation period. […] The amount of formazan was measured at 450 nm using a microplate reader (Dynex Technologies) with MRX Revelation software.

For experiment [5], the system named is HER5 cells. The following applies: cited from earlier work.

Chain of Her-3 (P21860 20-1342): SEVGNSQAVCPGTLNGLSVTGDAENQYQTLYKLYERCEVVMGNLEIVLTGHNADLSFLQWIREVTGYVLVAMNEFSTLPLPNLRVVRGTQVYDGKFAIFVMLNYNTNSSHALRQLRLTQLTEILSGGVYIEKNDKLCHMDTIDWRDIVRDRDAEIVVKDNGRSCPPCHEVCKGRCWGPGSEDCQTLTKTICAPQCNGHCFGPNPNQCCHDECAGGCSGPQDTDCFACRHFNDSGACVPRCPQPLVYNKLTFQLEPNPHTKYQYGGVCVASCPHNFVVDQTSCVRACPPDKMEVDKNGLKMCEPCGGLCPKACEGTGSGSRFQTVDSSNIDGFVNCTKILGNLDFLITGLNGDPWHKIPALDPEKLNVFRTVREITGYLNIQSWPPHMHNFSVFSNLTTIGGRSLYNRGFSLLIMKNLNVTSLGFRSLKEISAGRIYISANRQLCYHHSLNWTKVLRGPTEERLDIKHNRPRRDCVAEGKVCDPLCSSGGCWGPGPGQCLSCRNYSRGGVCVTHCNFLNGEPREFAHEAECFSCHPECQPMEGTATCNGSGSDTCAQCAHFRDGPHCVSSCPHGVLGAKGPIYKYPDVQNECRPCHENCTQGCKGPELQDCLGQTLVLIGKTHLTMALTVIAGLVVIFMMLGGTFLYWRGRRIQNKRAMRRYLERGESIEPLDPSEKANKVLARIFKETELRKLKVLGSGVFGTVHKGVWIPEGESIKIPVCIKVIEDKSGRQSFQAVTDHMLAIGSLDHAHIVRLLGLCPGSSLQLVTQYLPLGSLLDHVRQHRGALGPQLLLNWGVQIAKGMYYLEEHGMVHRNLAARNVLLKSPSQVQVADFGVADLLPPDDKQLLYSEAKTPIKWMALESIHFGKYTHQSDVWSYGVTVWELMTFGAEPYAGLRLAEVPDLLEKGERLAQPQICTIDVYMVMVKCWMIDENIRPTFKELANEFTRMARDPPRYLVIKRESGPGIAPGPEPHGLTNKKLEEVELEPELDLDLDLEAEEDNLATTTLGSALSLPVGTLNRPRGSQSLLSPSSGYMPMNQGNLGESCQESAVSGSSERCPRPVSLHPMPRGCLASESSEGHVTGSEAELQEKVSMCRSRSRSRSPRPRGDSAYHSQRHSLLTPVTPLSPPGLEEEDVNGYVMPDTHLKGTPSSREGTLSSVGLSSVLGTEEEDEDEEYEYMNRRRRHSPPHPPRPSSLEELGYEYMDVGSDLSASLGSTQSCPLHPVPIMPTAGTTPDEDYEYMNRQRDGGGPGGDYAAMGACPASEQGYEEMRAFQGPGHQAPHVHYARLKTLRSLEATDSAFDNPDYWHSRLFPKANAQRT

B1: Heregulin (purified protein): heregulin, native HER3/HER4 ligand, purified protein (protein)
chain: SHLVKCAEKEKTFCVNGGECFMVKDLSNPSRYLCKCPNEFTGDRCQNYVMASFYKHLGIEFMEAEELY
In the case of B1, the EC50 in experiment [1] was 6.15 nM. In addition, the “stimulation of MCF-7 cells” value in experiment [2] is “can be stimulated”.

B2: EGFwrs: EGF variant, residues 2 and 3 replaced with W and R, N-terminus NWRSE (protein)
chain: HHHHHHIEGRNWRSECPLSHDGYCLHDGVCMYIEALDKYACNCWGYIGERCQYRDLKWWELR
For the molecule B2, the binding affinity result in experiment [3] is “high binding affinity”.

B3: EGF (purified protein): human epidermal growth factor, 53 amino acid cytokine (PeproTech) (protein)
chain: B2 chain with W12S, R13D
Take B3: the EC50 in experiment [4] was 1.15 nM. Moreover, the “stimulation of HER5 cells” value in experiment [5] (stated as known) is “can be stimulated”. Also, the “stimulation of MCF-7 cells” value in experiment [2] was “not”.

B4: T1ER41D: T1E with arginine of position 41 replaced by aspartate (protein)
chain: VVSHFNDCPLSHDGYCLHDGVCMYIEALDKYACNCVVGYIGEDCQYRDLKWWELRAETVESCLAKPHTENSFTNVWKDDKTLDRYANYEGCLWNATGVVVCTGDETQCYGTWVPIGLAIPENEGGGSEGGGSEGGGSEGGGTKPPEYGDTPIPGYTYINPLDGTYPPGTEQNPANPNPSLEESQPLNTFMFQNNRFRNRQGALTVYTGTVTQGTDPVKTYYQYTPVSSKAMYDAYWNGKFRDCAFHSGFNEDPFVCEYQGQSSDLPQPPVNAGGGSGGGSGGGSEGGGSEGGGSEGGGSEGGGSGGGSGSGDFDYEKMANANKGAMTENADENALQSDAKGKLDSVATDYGAAIDGFIGDVSGLANGNGATGDFAGSNSQMAQVGDGDNSPLMNNFRQYLPSLPQSVECRPFVFSAGKPYEFSIDCDKINLFRGVFAFLLYVATFMYVFSTFANILRNKES
On to B4, for which the “stimulation of cell proliferation in EGFR-dependent HER5 cells” value in experiment [5] (isolated ligand variants, previously demonstrated) is “greatly attenuated activity”.

Values taken from patent publication US20090318350A1, “PAN-HER ANTAGONISTS AND METHODS OF USE” (priority 2006, published 2009).
